Blank lines part the entries; values can stand above or below the substance they belong to. Bridge positions count the residues as written; N and C are the ends. Ends that are not written are not given here.
Tests used:
CK2α = biological target: CK2α; parameters: method as in Raaf et al., 2013; conditions: ref Raaf et al., 2013; cited from earlier work
CK2β/CK2α complex = system: CK2β/CK2α complex; parameters: method as in Laudet et al., 2007; conditions: read-out: IC50, inhibition of CK2β/CK2α complex formation; ref Laudet et al., 2007; cited from earlier work
Aurora A = conditions: N-terminal segment of TPX2; ref Anderson et al., 2007; read-out: Affinity of TPX2 for Aurora A; cited from earlier work
From the text: Aurora A kinase plays an important role in the mitotic spindle assembly and is overexpressed in tumor cells ([Bischoff et al., 1998]). It is known to be dramatically activated by TPX2 protein, which binds to the Aurora A catalytic domain and translocates the kinase to the mitotic spindle during mitosis ([Bischoff et al., 1998]; [Kufer et al., 2002]; [Eyers et al., 2003]).

CK2α kinase [1] = biological target: T1, CK2α kinase (Homo sapiens, UniProt P68400); assay: Fluorescence anisotropy direct binding of labeled CK2β(186–200) / RAD-CK2β
T1 construct: made in house; host or cells: E. coli BL21(DE3) with pUBS520; pBAT4 plasmid
T1 sequence (P68400 2-329): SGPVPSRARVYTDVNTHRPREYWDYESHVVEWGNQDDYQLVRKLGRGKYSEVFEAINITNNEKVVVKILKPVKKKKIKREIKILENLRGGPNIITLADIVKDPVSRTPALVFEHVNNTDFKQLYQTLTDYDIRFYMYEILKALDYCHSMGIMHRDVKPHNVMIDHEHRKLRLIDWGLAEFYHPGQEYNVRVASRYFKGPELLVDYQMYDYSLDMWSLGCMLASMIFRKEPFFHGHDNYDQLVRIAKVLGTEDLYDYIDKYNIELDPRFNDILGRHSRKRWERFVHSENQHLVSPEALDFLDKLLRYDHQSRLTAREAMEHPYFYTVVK
Description: About 100 μg peptide or protein in 500 μl sodium phosphate pH 6.75, 150 mM NaCl were labeled using 30-fold excess of the maleimide dye. The reactions was allowed to proceed for 1 h at room temperature and the Alexa Fluor 488-maleimide was removed by dialysis using 3-kDa molecular weight cut-off membrane against 10 mM Tris pH 8, 250 mM NaCl buffer. Protein and peptide samples were dialyzed for 3 h at room temperature and further purified by SEC using Superdex 75 GL 10/300 or Superdex peptide 10/300 GL column (GE Healthcare). Labeled peptides and proteins were concentrated to 100 μM, flash frozen in liquid nitrogen and stored at −80°C. The concentration of labeled peptide or proteins and degree of labeling was determined by measuring the absorbance at 280 and 495 nm.
(§1) A stock solution of Alexa Fluor 488-labeled peptide or display proteins was diluted in assay buffer to concentration of 20 nM. For both studies, 10 mM HEPES pH 7.4, 500 mM NaCl, 1 mM DTT, 0.05% P20 buffer from was used. […] FA was measured using PheraStar spectrofluorimeter plate reader (BMG Laboratories, Durham, NC) equipped with polarization filters (excitation 485 nm, emission 520 nm). Dissociation constants were calculated in pro Fit (Quantum Soft) by fitting experimental data to 1:1 binding model equation.

CK2α kinase [2] = biological target: T1, CK2α kinase; assay: Affinities for CK2α across the experimental techniques (ITC, SPR, FA); format: binding; conditions: read-out: KD range between the different experimental techniques
Description: All ITC experiments were performed on itc200 instrument (GE Healthcare). Prior to ITC titration, proteins and peptides were buffer exchanged into 10 mM HEPES pH 7.4, 500 mM NaCl, 0.05% P20 surfactant. ITC experiments with Aurora Awt kinase were performed in buffer containing 50 mM HEPES pH 7.4, 100 mM Mg(CH3COO)2, 100 mM NaCl, 1 mM ATP, 1 mM DTT, 0.01% v/v P20. […] In the Aurora AD274N and Aurora AWT binding assays, 50 μM solution of the titrant was injected into 5 μM kinase solution in the cell. […] Binding isotherms were fit by non-linear regression using the single-site model provided by ORIGIN software (Origin Lab). […]
SPR analyses were conducted using a Biacore T100 instrument (GE Healthcare) using CM5 sensor chips to which cRAD display proteins were immobilized through their unique cysteine residues. […] Aurora A binding to TPX-2 peptide and RAD-TPX-2 were analyzed also using kinetic data with heterogenous ligand model, with data presented in the Supplementary Material.
as §1, with “nM.” for “nM. For both studies, 10 mM HEPES pH 7.4, 500 mM NaCl, 1 mM DTT, 0.05% P20 buffer from was used.”

CK2α kinase [3] = biological target: T1, CK2α kinase; assay: SPR binding of CK2α to immobilized CK2β(186–200) / RAD-CK2β; conditions: Biacore T100, CM5 chip, ligand immobilized via free cysteine (linear peptide with C-terminal Gly-Cys), 25°C, 10 mM HEPES pH 7.4, 500 mM NaCl, 0.05% P20; data at 200 s post-injection; 1:1 steady-state model; ± from fitting; read-out: Equilibrium dissociation constant (KD), SPR steady-state
Description: SPR analyses were conducted using a Biacore T100 instrument (GE Healthcare) using CM5 sensor chips to which cRAD display proteins were immobilized through their unique cysteine residues. All coupling reagents were purchased from GE Healthcare: N-ethyl-N′-dimethylaminopropylcarbodiimide (EDC), 2-(2-pyridinyldithio) ethaneamine hydrochloride (PDEA), N-hydroxysuccinimide (NHS). All immobilizations were conducted at 25°C in running buffer 10 mM HEPES pH 7.4, 500 mM sodium chloride, 0.05% P20. Two CM5 sensor chips were used for the experiments. Peptides and RAD scaffold displaying the peptides were covalently immobilized via free cysteine on the sensor surface in cells 2 and 4, respectively. Cells 1 and 3 were derivatized with cysteine only and served as reference surfaces. Active and reference cells were created automatically using the immobilization surface preparation Wizard software. Immobilization levels for cells 2 and 4 ranged from 240 to 400 RU. […] The dissociation step was 180 s after which sensor surfaces were regenerated by injecting 3 M MgCl2 solution 3 times for 30 sat 60 μl/min. […] Aurora A binding to TPX-2 peptide and RAD-TPX-2 were analyzed also using kinetic data with heterogenous ligand model, with data presented in the Supplementary Material.

CK2α kinase [4] = biological target: T1, CK2α kinase; assay: ITC binding of CK2β(186–200) peptide / RAD display to CK2α; conditions: 25°C, 10 mM HEPES pH 7.4, 500 mM NaCl, 0.05% P20, 100 μM titrant into 10 μM CK2α, single titration, ± from fitting, RAD version is cRAD-CK2β(186–200), read-out: Equilibrium dissociation constant (KD), ITC
Description: All ITC experiments were performed on itc200 instrument (GE Healthcare). Prior to ITC titration, proteins and peptides were buffer exchanged into 10 mM HEPES pH 7.4, 500 mM NaCl, 0.05% P20 surfactant. ITC experiments with Aurora Awt kinase were performed in buffer containing 50 mM HEPES pH 7.4, 100 mM Mg(CH3COO)2, 100 mM NaCl, 1 mM ATP, 1 mM DTT, 0.01% v/v P20. […] In the Aurora AD274N and Aurora AWT binding assays, 50 μM solution of the titrant was injected into 5 μM kinase solution in the cell. […] Binding isotherms were fit by non-linear regression using the single-site model provided by ORIGIN software (Origin Lab). The stoichiometry of the interaction (N), equilibrium association constant (KA) and change of enthalpy (ΔH) were floated during the fitting.

[5] = biological target: T2, wild-type Aurora A (Aurora AWT) kinase domain (Homo sapiens, UniProt O14965); assay: Bio-Layer Interferometry direct binding of Aurora AWT to RAD-TPX2 mutants; conditions: double His-tagged RAD-TPX2 on Anti-Penta-HIS biosensors, 50 mM HEPES pH 7.4, 500 mM NaCl, 100 mM Mg(CH3COO)2, 0.5 mM ATP, 0.5 mM TCEP, 0.05% P20, 1:1 model, read-out: KD, BLI (Fig. 5a)
T2 construct: Aurora A (126-391)WT; made in house; host or cells: E. coli; plasmid pHAT4-LambdaPP
T2 sequence (O14965 126-391): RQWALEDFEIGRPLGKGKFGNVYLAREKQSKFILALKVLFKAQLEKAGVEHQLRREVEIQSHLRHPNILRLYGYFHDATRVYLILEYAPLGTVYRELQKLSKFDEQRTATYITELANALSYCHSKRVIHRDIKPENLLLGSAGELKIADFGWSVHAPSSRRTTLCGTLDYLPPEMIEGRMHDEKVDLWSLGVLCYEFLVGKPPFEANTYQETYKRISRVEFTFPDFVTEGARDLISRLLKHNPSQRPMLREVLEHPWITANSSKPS
Description: Octet RED96 (ForteBio) instrument was used for BLI analysis for double His-tagged RAD-TPX2/Aurora AWT interactions. Experiments were performed using Anti-Penta-HIS biosensors (ForteBio), which were regenerated with 10 mM glycine, pH 1.7. IMAC purified RAD proteins displaying wild-type sequence or alanine mutants of the TPX2 were buffer exchanged into 50 mM HEPES pH 7.4, 500 mM NaCl, 100 mM Mg(CH3COO)2, 0.5 mM ATP, 0.5 mM TCEP, 0.05% P20 (assay buffer). For binding assays pre-wet sensors were loaded with double His-tag labeled proteins at 1 μM in assay buffer. Dilution series (from 0 to 500 or 5000 nM) of Aurora AWT kinase construct without His-tag was prepared in the assay buffer and following experimental setup was used for each measurement cycle: regeneration 3 × 5 s, baseline monitoring 120 s, sample loading 200 s, baseline monitoring 150 s, ligand binding (association) 400 s and ligand dissociation 600 s, followed by regeneration and the next cycle. Regenerated Anti-Penta-HIS biosensors were used to perform double referencing. Data was processed using ForteBio Analysis 7.1 software and dissociation constants were calculated in pro Fit (Quantum Soft) by fitting experimental data to 1:1 binding model equation.

Substance: GCRLYGFKIHGCG (disulfide 2-12 (inferred)) [Pc peptide]
Kd (CK2α): 559 nM
IC50 (CK2β/CK2α complex): 3000 nM

Substance: TPX2: TPX2 protein, binds Aurora A through its N-terminal segment (LSYSYDAPSDFINFSSLDDEGDTQNIDSWFEEKANLENLKGGGCQM; left off: KSI, end not stated, cleaved)
Kd (Aurora A): 2.3 nM

Substance: CK2β(186–200): synthetic linear peptide, residues 186–200 of human CK2β (RLYGFKIHPMAYQLQ; UniProt P67870 186-200, looked up, fragment)
Kd (CK2α kinase [1]; fluorescein-labeled linear peptide or Alexa Fluor 488-labeled cRAD-CK2β(186–200), 10 mM HEPES pH 7.4, 500 mM NaCl, 1 mM DTT, 0.05% P20, CK2α 2 nM–2 μM, 15 min room temperature, 1:1 model, ± from fitting, read-out: Equilibrium dissociation constant (KD), FA): 348 ± 27 nM
Kd (CK2α kinase [2]): 138 to 407 nM
Kd (CK2α kinase [3]): 407 ± 50 nM
Kd (CK2α kinase [4]): 138 ± 13 nM

Fold weaker affinity of labeled linear peptide vs RAD display, FA (CK2α kinase [1]; fluorescein-labeled linear CK2β peptide relative to RAD-CK2β display): ~ 3 times
Substance: fluorescein labeled linear CK2β peptide: fluorescein labeled linear CK2β(186–200) peptide (RLYGFKIHPMAYQLQ; also: fluorescein label, site not given here; UniProt P67870 186-200, looked up, fragment) [reference compound]

Kd [5]: 46 nM
Substance: RAD-TPX2(7–43): RAD scaffold (RadA ATPase domain) displaying residues 7–43 of human TPX2

Reference: paper PMC5897841, “Development of a multipurpose scaffold for the display of peptide loops” (Protein Engineering, Design and Selection, 2017)
